Experimental findings from publication PMC8686072 are described below.

For orientation: Kd means the concentration at which binding is half-saturated. Read a high Kd as lower affinity.

This assay addresses DCLK1 KD (DCLK1 kinase domain lacking the inhibitory C-terminal tail) (human) (UniProt O15075). Nature of the assay: SPR. (In general: SPR reads the build-up and loss of mass on a sensor chip optically.)
UniProt O15075, sequence (O15075 390-647): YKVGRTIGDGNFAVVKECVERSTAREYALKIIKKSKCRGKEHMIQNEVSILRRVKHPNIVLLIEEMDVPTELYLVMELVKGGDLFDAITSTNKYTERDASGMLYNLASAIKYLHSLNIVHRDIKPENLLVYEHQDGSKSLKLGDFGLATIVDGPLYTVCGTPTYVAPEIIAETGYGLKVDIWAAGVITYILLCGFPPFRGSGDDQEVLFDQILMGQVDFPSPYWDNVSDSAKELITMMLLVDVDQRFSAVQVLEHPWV

“DCLK1 AID peptide (C-terminal autoinhibitory domain of DCLK1 isoform 2)”: the Kd stood at 155 µM.
